The numbers were not newly measured in publication PMC2695410, which cites them from elsewhere.

The target of the data set is Calmodulin (Bos taurus) (UniProt P62157).

In the case of “Aquaporin 0 C-terminal peptide C-terminus (from UniProt P30301)”, the Kd was 480 nM.
